From patent publication US20140322307A1 (LIPOTEC S A, published 2014) come the findings set out here.

For one experiment, the target named is T1, Proteinase-Activated Receptor-2 (rat, on rat DRG neurons) (rat, UniProt Q63645 37-397).
T1 sequence (looked up): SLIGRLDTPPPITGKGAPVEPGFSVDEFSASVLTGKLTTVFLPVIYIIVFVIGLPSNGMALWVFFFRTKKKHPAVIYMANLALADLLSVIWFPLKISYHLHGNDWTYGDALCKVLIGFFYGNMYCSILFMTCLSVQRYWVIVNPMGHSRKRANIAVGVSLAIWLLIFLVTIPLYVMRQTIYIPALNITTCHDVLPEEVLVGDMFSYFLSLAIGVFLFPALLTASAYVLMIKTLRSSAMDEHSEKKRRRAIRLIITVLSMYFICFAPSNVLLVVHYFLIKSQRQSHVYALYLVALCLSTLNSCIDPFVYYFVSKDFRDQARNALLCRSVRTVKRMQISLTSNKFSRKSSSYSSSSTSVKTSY
The experiment can be described thus: cell-based or functional assay.
For the molecule Ac-FFWFHV-NH2 [Ac-L-Phe-L-Phe-L-Trp-L-Phe-L-His-L-Val-NH2], the “% CGRP (release from rat DRG neurons after PAR-2 agonist I and capsaicin; peptide at 25 µg/mL)” value is 58.9%; the “% CGRP (release from rat DRG neurons after PAR-2 agonist I and capsaicin; peptide at 0.5 mg/mL)” value is 17.7%.

Regarding Ac-FFWDIV-NH2 [Ac-L-Phe-L-Phe-L-Trp-L-Asp-L-Ile-L-Val-NH2], the “% CGRP (release from rat DRG neurons after PAR-2 agonist I and capsaicin; peptide at 25 µg/mL)” value is 78.7%; the “% CGRP (release from rat DRG neurons after PAR-2 agonist I and capsaicin; peptide at 0.5 mg/mL)” value stood at 20.3%.

As to Ac-FMWFHV-NH2 [Ac-L-Phe-L-Met-L-Trp-L-Phe-L-His-L-Val-NH2], the “% CGRP (release from rat DRG neurons after PAR-2 agonist I and capsaicin; peptide at 25 µg/mL)” value came out at 70.1%; the “% CGRP (release from rat DRG neurons after PAR-2 agonist I and capsaicin; peptide at 0.5 mg/mL)” value is 20.2%.

Another experiment addresses T2, Proteinase-Activated Receptor-2 (human, on human keratinocytes) (human, UniProt P55085 37-397).
T2 sequence (looked up): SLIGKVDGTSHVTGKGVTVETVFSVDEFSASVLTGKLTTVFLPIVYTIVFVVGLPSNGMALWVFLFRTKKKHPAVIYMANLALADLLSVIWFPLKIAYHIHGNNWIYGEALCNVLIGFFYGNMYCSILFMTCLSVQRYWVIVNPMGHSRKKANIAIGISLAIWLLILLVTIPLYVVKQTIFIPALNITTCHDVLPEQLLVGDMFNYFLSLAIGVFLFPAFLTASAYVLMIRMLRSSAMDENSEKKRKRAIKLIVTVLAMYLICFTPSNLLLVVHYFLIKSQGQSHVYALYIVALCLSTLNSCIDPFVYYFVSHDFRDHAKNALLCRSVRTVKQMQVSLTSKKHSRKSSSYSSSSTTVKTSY
The experiment is described as follows: cell-based or functional assay.
As to Ac-SFQFHS-NH2 [Ac-L-Ser-L-Phe-L-Gln-L-Phe-L-His-L-Ser-NH2], the “Inhibition PAR-2 activity (calcium fluorescence, human keratinocytes, peptide at 1 mg/mL)” value came out at 9.9% and the “PAR-2 activity (calcium fluorescence, human keratinocytes, peptide at 1 mg/mL)” value worked out at 90.1%.

For the molecule Ac-FFRDIV-NH2 [Ac-L-Phe-L-Phe-L-Arg-L-Asp-L-Ile-L-Val-NH2], the “Inhibition PAR-2 activity (calcium fluorescence, human keratinocytes, peptide at 1 mg/mL)” value was 39% and the “PAR-2 activity (calcium fluorescence, human keratinocytes, peptide at 1 mg/mL)” value turned out to be 61%.

As for Ac-SFRFIV-NH2 [Ac-L-Ser-L-Phe-L-Arg-L-Phe-L-Ile-L-Val-NH2], the “Inhibition PAR-2 activity (calcium fluorescence, human keratinocytes, peptide at 1 mg/mL)” value is 58.9% and the “PAR-2 activity (calcium fluorescence, human keratinocytes, peptide at 1 mg/mL)” value was found to be 41.1%.

Turning to Ac-FFRDHV-NH2 [Ac-L-Phe-L-Phe-L-Arg-L-Asp-L-His-L-Val-NH2], the “Inhibition PAR-2 activity (calcium fluorescence, human keratinocytes, peptide at 1 mg/mL)” value is 60.3% and the “PAR-2 activity (calcium fluorescence, human keratinocytes, peptide at 1 mg/mL)” value is 39.7%.

As for Ac-FMQFHS-NH2 [Ac-L-Phe-L-Met-L-Gln-L-Phe-L-His-L-Ser-NH2], the “Inhibition PAR-2 activity (calcium fluorescence, human keratinocytes, peptide at 1 mg/mL)” value was found to be 23% and the “PAR-2 activity (calcium fluorescence, human keratinocytes, peptide at 1 mg/mL)” value worked out at 77%.

Consider Ac-FFWFHV-NH2 [Ac-L-Phe-L-Phe-L-Trp-L-Phe-L-His-L-Val-NH2], for which the “Inhibition PAR-2 activity (calcium fluorescence, human keratinocytes, peptide at 1 mg/mL)” value was 67.8% and the “PAR-2 activity (calcium fluorescence, human keratinocytes, peptide at 1 mg/mL)” value worked out at 32.2%.

As for Ac-FFWDIV-NH2 [Ac-L-Phe-L-Phe-L-Trp-L-Asp-L-Ile-L-Val-NH2], the “Inhibition PAR-2 activity (calcium fluorescence, human keratinocytes, peptide at 1 mg/mL)” value was 67.4% and the “PAR-2 activity (calcium fluorescence, human keratinocytes, peptide at 1 mg/mL)” value came out at 32.6%.

On to Ac-FMQDIV-NH2 [Ac-L-Phe-L-Met-L-Gln-L-Asp-L-Ile-L-Val-NH2], for which the “Inhibition PAR-2 activity (calcium fluorescence, human keratinocytes, peptide at 1 mg/mL)” value came to 9.7% and the “PAR-2 activity (calcium fluorescence, human keratinocytes, peptide at 1 mg/mL)” value turned out to be 90.3%.

Regarding Ac-FMRFHV-NH2 [Ac-L-Phe-L-Met-L-Arg-L-Phe-L-His-L-Val-NH2], the “Inhibition PAR-2 activity (calcium fluorescence, human keratinocytes, peptide at 1 mg/mL)” value amounted to 40% and the “PAR-2 activity (calcium fluorescence, human keratinocytes, peptide at 1 mg/mL)” value was 60%.

As for Ac-SFQFIV-NH2 [Ac-L-Ser-L-Phe-L-Gln-L-Phe-L-Ile-L-Val-NH2], the “Inhibition PAR-2 activity (calcium fluorescence, human keratinocytes, peptide at 1 mg/mL)” value worked out at 26.2% and the “PAR-2 activity (calcium fluorescence, human keratinocytes, peptide at 1 mg/mL)” value was determined as 73.8%.

Take Ac-SFWFHV-NH2 [Ac-L-Ser-L-Phe-L-Trp-L-Phe-L-His-L-Val-NH2]: the “Inhibition PAR-2 activity (calcium fluorescence, human keratinocytes, peptide at 1 mg/mL)” value was 58.3% and the “PAR-2 activity (calcium fluorescence, human keratinocytes, peptide at 1 mg/mL)” value was determined as 41.7%.

With Ac-SMQFHV-NH2 [Ac-L-Ser-L-Met-L-Gln-L-Phe-L-His-L-Val-NH2], the “Inhibition PAR-2 activity (calcium fluorescence, human keratinocytes, peptide at 1 mg/mL)” value came to 15.1% and the “PAR-2 activity (calcium fluorescence, human keratinocytes, peptide at 1 mg/mL)” value was 84.9%.

Take Ac-SMQFIV-NH2 [Ac-L-Ser-L-Met-L-Gln-L-Phe-L-Ile-L-Val-NH2]: the “Inhibition PAR-2 activity (calcium fluorescence, human keratinocytes, peptide at 1 mg/mL)” value was determined as 23.4% and the “PAR-2 activity (calcium fluorescence, human keratinocytes, peptide at 1 mg/mL)” value is 76.7%.

Consider Ac-FFQFHS-NH2 [Ac-L-Phe-L-Phe-L-Gln-L-Phe-L-His-L-Ser-NH2], for which the “Inhibition PAR-2 activity (calcium fluorescence, human keratinocytes, peptide at 1 mg/mL)” value stood at 37.4% and the “PAR-2 activity (calcium fluorescence, human keratinocytes, peptide at 1 mg/mL)” value amounted to 62.6%.

In the case of Ac-FMQFHV-NH2 [Ac-L-Phe-L-Met-L-Gln-L-Phe-L-His-L-Val-NH2], the “Inhibition PAR-2 activity (calcium fluorescence, human keratinocytes, peptide at 1 mg/mL)” value was found to be 22.6% and the “PAR-2 activity (calcium fluorescence, human keratinocytes, peptide at 1 mg/mL)” value turned out to be 77.5%.

Consider Ac-SFWFIS-NH2 [Ac-L-Ser-L-Phe-L-Trp-L-Phe-L-Ile-L-Ser-NH2], for which the “Inhibition PAR-2 activity (calcium fluorescence, human keratinocytes, peptide at 1 mg/mL)” value is 39.2% and the “PAR-2 activity (calcium fluorescence, human keratinocytes, peptide at 1 mg/mL)” value stood at 60.8%.

In the case of Ac-FFQFHV-NH2 [Ac-L-Phe-L-Phe-L-Gln-L-Phe-L-His-L-Val-NH2], the “Inhibition PAR-2 activity (calcium fluorescence, human keratinocytes, peptide at 1 mg/mL)” value came to 19.9% and the “PAR-2 activity (calcium fluorescence, human keratinocytes, peptide at 1 mg/mL)” value is 80.1%.

Take Ac-FMRFIV-NH2 [Ac-L-Phe-L-Met-L-Arg-L-Phe-L-Ile-L-Val-NH2]: the “Inhibition PAR-2 activity (calcium fluorescence, human keratinocytes, peptide at 1 mg/mL)” value amounted to 40.9% and the “PAR-2 activity (calcium fluorescence, human keratinocytes, peptide at 1 mg/mL)” value came out at 59.1%.

With Ac-FMWFHV-NH2 [Ac-L-Phe-L-Met-L-Trp-L-Phe-L-His-L-Val-NH2], the “Inhibition PAR-2 activity (calcium fluorescence, human keratinocytes, peptide at 1 mg/mL)” value came to 76.5% and the “PAR-2 activity (calcium fluorescence, human keratinocytes, peptide at 1 mg/mL)” value stood at 23.5%.

Regarding Ac-FFRFIV-NH2 [Ac-L-Phe-L-Phe-L-Arg-L-Phe-L-Ile-L-Val-NH2], the “Inhibition PAR-2 activity (calcium fluorescence, human keratinocytes, peptide at 1 mg/mL)” value came out at 53.7% and the “PAR-2 activity (calcium fluorescence, human keratinocytes, peptide at 1 mg/mL)” value turned out to be 46.3%.

With Ac-FMWFIV-NH2 [Ac-L-Phe-L-Met-L-Trp-L-Phe-L-Ile-L-Val-NH2], the “Inhibition PAR-2 activity (calcium fluorescence, human keratinocytes, peptide at 1 mg/mL)” value was determined as 20.7% and the “PAR-2 activity (calcium fluorescence, human keratinocytes, peptide at 1 mg/mL)” value was 79.3%.

Turning to Ac-FFWDHV-NH2 [Ac-L-Phe-L-Phe-L-Trp-L-Asp-L-His-L-Val-NH2], the “Inhibition PAR-2 activity (calcium fluorescence, human keratinocytes, peptide at 1 mg/mL)” value is 14.8% and the “PAR-2 activity (calcium fluorescence, human keratinocytes, peptide at 1 mg/mL)” value turned out to be 85.2%.

As to Ac-SMWFHV-NH2 [Ac-L-Ser-L-Met-L-Trp-L-Phe-L-His-L-Val-NH2], the “Inhibition PAR-2 activity (calcium fluorescence, human keratinocytes, peptide at 1 mg/mL)” value was found to be 13.5% and the “PAR-2 activity (calcium fluorescence, human keratinocytes, peptide at 1 mg/mL)” value was determined as 86.5%.

In the case of Ac-FFQFIV-NH2 [Ac-L-Phe-L-Phe-L-Gln-L-Phe-L-Ile-L-Val-NH2], the “Inhibition PAR-2 activity (calcium fluorescence, human keratinocytes, peptide at 1 mg/mL)” value came out at 24.1% and the “PAR-2 activity (calcium fluorescence, human keratinocytes, peptide at 1 mg/mL)” value amounted to 75.9%.

Ac-FFQDIV-NH2 [Ac-L-Phe-L-Phe-L-Gln-L-Asp-L-Ile-L-Val-NH2]: the “Inhibition PAR-2 activity (calcium fluorescence, human keratinocytes, peptide at 1 mg/mL)” value worked out at 35.9% and the “PAR-2 activity (calcium fluorescence, human keratinocytes, peptide at 1 mg/mL)” value worked out at 64.1%.

For the molecule Ac-SMWFIV-NH2 [Ac-L-Ser-L-Met-L-Trp-L-Phe-L-Ile-L-Val-NH2], the “Inhibition PAR-2 activity (calcium fluorescence, human keratinocytes, peptide at 1 mg/mL)” value amounted to 43.3% and the “PAR-2 activity (calcium fluorescence, human keratinocytes, peptide at 1 mg/mL)” value amounted to 56.7%.

On to Ac-FFWFIS-NH2 [Ac-L-Phe-L-Phe-L-Trp-L-Phe-L-Ile-L-Ser-NH2], for which the “Inhibition PAR-2 activity (calcium fluorescence, human keratinocytes, peptide at 1 mg/mL)” value worked out at 66.3% and the “PAR-2 activity (calcium fluorescence, human keratinocytes, peptide at 1 mg/mL)” value came out at 33.7%.

In the case of Ac-FFRFHV-NH2 [Ac-L-Phe-L-Phe-L-Arg-L-Phe-L-His-L-Val-NH2], the “Inhibition PAR-2 activity (calcium fluorescence, human keratinocytes, peptide at 1 mg/mL)” value is 23.4% and the “PAR-2 activity (calcium fluorescence, human keratinocytes, peptide at 1 mg/mL)” value is 76.6%.

Turning to Ac-FFWFIV-NH2 [Ac-L-Phe-L-Phe-L-Trp-L-Phe-L-Ile-L-Val-NH2], the “Inhibition PAR-2 activity (calcium fluorescence, human keratinocytes, peptide at 1 mg/mL)” value amounted to 13.9% and the “PAR-2 activity (calcium fluorescence, human keratinocytes, peptide at 1 mg/mL)” value was 86.1%.

As for Ac-SMRFIV-NH2 [Ac-L-Ser-L-Met-L-Arg-L-Phe-L-Ile-L-Val-NH2], the “Inhibition PAR-2 activity (calcium fluorescence, human keratinocytes, peptide at 1 mg/mL)” value turned out to be 75.2% and the “PAR-2 activity (calcium fluorescence, human keratinocytes, peptide at 1 mg/mL)” value amounted to 24.8%.

On to Ac-FMWDIV-NH2 [Ac-L-Phe-L-Met-L-Trp-L-Asp-L-Ile-L-Val-NH2], for which the “Inhibition PAR-2 activity (calcium fluorescence, human keratinocytes, peptide at 1 mg/mL)” value turned out to be 86.1% and the “PAR-2 activity (calcium fluorescence, human keratinocytes, peptide at 1 mg/mL)” value was determined as 13.9%.

Turning to Ac-FMQFIV-NH2 [Ac-L-Phe-L-Met-L-Gln-L-Phe-L-Ile-L-Val-NH2], the “Inhibition PAR-2 activity (calcium fluorescence, human keratinocytes, peptide at 1 mg/mL)” value came out at 28.6% and the “PAR-2 activity (calcium fluorescence, human keratinocytes, peptide at 1 mg/mL)” value turned out to be 71.4%.
